From PMC9482650, “Quantitative fragmentomics allow affinity mapping of interactomes” (Nature Communications, 2022)

T1: PCLO, Q9Y6V0
T1 sequence (Q9Y6V0 4491-4600, limits assumed, looked up): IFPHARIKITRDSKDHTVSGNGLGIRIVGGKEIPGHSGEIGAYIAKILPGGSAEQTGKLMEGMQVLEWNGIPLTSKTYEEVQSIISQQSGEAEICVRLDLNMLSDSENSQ

T2: ARHGAP21, Q5T5U3
T2 sequence (Q5T5U3 45-169, limits assumed, looked up): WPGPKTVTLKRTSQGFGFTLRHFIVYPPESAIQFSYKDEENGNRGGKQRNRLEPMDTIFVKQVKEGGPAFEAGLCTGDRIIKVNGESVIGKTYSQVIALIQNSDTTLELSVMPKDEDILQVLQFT

T3: APBA1_1, Q02410
T3 sequence (Q02410 651-752, limits assumed, looked up): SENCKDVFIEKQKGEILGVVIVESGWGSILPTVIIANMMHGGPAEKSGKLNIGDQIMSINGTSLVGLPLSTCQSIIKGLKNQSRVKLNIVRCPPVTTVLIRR

T4: DLG3_1, Q92796
T4 sequence (Q92796 125-227, limits assumed, looked up): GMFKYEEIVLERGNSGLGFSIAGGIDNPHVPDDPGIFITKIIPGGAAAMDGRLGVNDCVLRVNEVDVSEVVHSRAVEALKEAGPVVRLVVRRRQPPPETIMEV

T5: TJP3_3, O95049
T5 sequence (O95049 375-456, limits assumed, looked up): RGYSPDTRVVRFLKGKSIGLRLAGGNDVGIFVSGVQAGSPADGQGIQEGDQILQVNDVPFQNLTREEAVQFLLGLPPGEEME

T6: RHPN1, Q8TCX5
T6 sequence (Q8TCX5 508-602, limits assumed, looked up): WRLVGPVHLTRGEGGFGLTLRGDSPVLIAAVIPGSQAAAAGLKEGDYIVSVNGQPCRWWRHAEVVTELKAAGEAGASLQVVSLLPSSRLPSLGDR

T7: MPP6, Q9NZW5
T7 sequence (Q9NZW5 125-219, limits assumed, looked up): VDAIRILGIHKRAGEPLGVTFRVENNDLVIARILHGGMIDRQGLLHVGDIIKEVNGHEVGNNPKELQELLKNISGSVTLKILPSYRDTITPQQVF

T8: HTRA3, P83110
T8 sequence (P83110 354-453, limits assumed, looked up): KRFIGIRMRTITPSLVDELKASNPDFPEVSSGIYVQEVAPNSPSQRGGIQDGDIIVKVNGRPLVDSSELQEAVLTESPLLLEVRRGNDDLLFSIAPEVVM

T9: DFNB31_1, Q9P202
T9 sequence (Q9P202 135-233, limits assumed, looked up): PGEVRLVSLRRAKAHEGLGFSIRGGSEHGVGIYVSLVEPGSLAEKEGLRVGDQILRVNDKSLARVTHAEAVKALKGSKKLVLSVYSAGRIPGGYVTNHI

T10: MPDZ_5, O75970
T10 sequence (O75970 695-796, limits assumed, looked up): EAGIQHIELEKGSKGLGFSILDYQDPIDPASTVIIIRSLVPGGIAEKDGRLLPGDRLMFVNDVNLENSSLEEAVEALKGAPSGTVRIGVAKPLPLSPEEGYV

T11: HTRA4, P83105
T11 sequence (P83105 378-476, limits assumed, looked up): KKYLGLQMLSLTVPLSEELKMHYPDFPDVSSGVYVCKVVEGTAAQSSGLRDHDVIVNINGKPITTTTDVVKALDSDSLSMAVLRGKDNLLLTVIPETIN

T12: DLG3_3, Q92796
T12 sequence (Q92796 374-475, limits assumed, looked up): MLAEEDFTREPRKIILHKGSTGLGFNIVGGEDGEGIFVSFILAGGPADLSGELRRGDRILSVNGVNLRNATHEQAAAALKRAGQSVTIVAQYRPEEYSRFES

T13: NHERF3_3, Q5T2W1
T13 sequence (Q5T2W1 238-333, limits assumed, looked up): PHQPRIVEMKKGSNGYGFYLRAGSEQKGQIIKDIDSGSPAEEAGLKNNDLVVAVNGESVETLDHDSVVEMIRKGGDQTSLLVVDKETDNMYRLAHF


Tests used:
Assay in all cases: holdup assay
Set-up in all cases: key: below the threshold = too weak to quantify, mostly under pKd 3.1 to 4
Conditions in all cases: plain residues with an end cap or a label only (N-terminal biotin on a linker: ado-ado)
PCLO, Q9Y6V0 = target: T1, PCLO, Q9Y6V0
ARHGAP21, Q5T5U3 = target: T2, ARHGAP21, Q5T5U3
MAGI1_1, Q96QZ7 = target: MAGI1_1, Q96QZ7
MAGI1_1, Q96QZ7, sequence (Q96QZ7 1-106): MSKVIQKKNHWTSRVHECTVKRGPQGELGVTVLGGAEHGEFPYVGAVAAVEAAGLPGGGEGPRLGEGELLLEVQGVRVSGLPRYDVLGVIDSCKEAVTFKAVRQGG

APBA1_1, Q02410 = target: T3, APBA1_1, Q02410
DLG3_1, Q92796 = target: T4, DLG3_1, Q92796
PTPN3, P26045 = target: PTPN3, P26045
PTPN3, P26045, sequence (P26045 505-587): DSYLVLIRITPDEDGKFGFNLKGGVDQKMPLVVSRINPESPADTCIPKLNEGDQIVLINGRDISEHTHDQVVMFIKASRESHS

TJP3_3, O95049 = target: T5, TJP3_3, O95049
DLG1_1, Q12959 = target: DLG1_1, Q12959
LIMK2, P53671 = target: LIMK2, P53671
LIMK2, P53671, sequence (P53671 143-248): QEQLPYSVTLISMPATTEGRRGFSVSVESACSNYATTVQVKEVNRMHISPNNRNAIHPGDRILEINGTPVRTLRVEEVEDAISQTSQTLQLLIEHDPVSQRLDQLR

RHPN1, Q8TCX5 = target: T6, RHPN1, Q8TCX5
MPP6, Q9NZW5 = target: T7, MPP6, Q9NZW5
PDZRN4_1, Q6ZMN7 = target: PDZRN4_1, Q6ZMN7
PDZRN4_1, Q6ZMN7, sequence (Q6ZMN7 213-318): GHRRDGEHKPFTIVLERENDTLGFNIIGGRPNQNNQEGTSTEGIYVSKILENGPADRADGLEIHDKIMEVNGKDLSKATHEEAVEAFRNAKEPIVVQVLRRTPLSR

HTRA3, P83110 = target: T8, HTRA3, P83110
GORASP1, Q9BQQ3 = target: GORASP1, Q9BQQ3
GORASP1, Q9BQQ3, sequence (Q9BQQ3 1-208): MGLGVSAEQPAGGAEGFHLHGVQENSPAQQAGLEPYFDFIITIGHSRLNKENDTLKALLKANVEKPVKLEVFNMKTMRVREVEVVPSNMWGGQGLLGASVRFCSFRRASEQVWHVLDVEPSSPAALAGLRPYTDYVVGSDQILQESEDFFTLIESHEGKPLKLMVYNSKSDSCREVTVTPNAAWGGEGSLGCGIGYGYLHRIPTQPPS

LNX1_3, Q8TBB1 = target: LNX1_3, Q8TBB1
LNX1_3, Q8TBB1, sequence (Q8TBB1 500-596): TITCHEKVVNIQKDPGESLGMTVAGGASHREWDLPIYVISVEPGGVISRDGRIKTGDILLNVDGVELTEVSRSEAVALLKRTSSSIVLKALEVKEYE

DFNB31_1, Q9P202 = target: T9, DFNB31_1, Q9P202
MPDZ_5, O75970 = target: T10, MPDZ_5, O75970
MAGI2_6, Q86UL8 = target: MAGI2_6, Q86UL8
MAGI2_6, Q86UL8, sequence (Q86UL8 1141-1229): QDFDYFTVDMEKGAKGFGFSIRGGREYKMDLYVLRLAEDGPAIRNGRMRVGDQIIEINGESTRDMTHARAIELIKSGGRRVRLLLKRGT

GORASP2, Q9H8Y8 = target: GORASP2, Q9H8Y8
HTRA4, P83105 = target: T11, HTRA4, P83105
ARHGEF12, Q9NZN5-2 = target: ARHGEF12, Q9NZN5-2
ARHGEF12, Q9NZN5-2, sequence (Q9NZN5 other isoform, or with tags, fused parts or gaps): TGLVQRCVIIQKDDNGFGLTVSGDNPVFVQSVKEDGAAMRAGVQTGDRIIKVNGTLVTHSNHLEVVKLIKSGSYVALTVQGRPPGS

DLG3_3, Q92796 = target: T12, DLG3_3, Q92796
NHERF3_3, Q5T2W1 = target: T13, NHERF3_3, Q5T2W1
LNX1_1, Q8TBB1 = target: LNX1_1, Q8TBB1
LNX1_1, Q8TBB1, sequence (Q8TBB1 261-371): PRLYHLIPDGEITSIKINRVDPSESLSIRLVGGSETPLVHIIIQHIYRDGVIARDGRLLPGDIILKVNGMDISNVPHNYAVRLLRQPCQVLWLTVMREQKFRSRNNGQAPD

pKd (PCLO, Q9Y6V0) | pKd (ARHGAP21, Q5T5U3) | pKd (MAGI1_1, Q96QZ7) | pKd (APBA1_1, Q02410) | pKd (DLG3_1, Q92796) | pKd (PTPN3, P26045) | pKd (TJP3_3, O95049) | pKd (DLG1_1, Q12959) | pKd (LIMK2, P53671) | pKd (RHPN1, Q8TCX5) | pKd (MPP6, Q9NZW5) | pKd (PDZRN4_1, Q6ZMN7) | pKd (HTRA3, P83110) | pKd (GORASP1, Q9BQQ3) | pKd (LNX1_3, Q8TBB1) | pKd (DFNB31_1, Q9P202) | pKd (MPDZ_5, O75970) | pKd (MAGI2_6, Q86UL8) | pKd (GORASP2, Q9H8Y8) | pKd (HTRA4, P83105) | Binder | further results
below the threshold | 3.86 | below the threshold | below the threshold | 3.58 | 4.98 | below the threshold | 4.32 | below the threshold | below the threshold | 3.93 | 3.63 | below the threshold | below the threshold | below the threshold | 3.95 | below the threshold | below the threshold | below the threshold | 3.94 | NTLNRKTTPV [CACNG8, Q8WXS5] | pKd (ARHGEF12, Q9NZN5-2): 4.05; pKd (DLG3_3, Q92796): 5.08; pKd (NHERF3_3, Q5T2W1): below the threshold; pKd (LNX1_1, Q8TBB1): 3.66
below the threshold | below the threshold | below the threshold | below the threshold | below the threshold | below the threshold | below the threshold | below the threshold | below the threshold | 4.32 | below the threshold | 3.59 | below the threshold | below the threshold | below the threshold | 4.79 | below the threshold | 3.61 | below the threshold | 3.87 | PTPDLPQTRV [KLHDC7A, Q5VTJ3] | pKd (ARHGEF12, Q9NZN5-2): 4.13; pKd (DLG3_3, Q92796): below the threshold; pKd (NHERF3_3, Q5T2W1): below the threshold; pKd (LNX1_1, Q8TBB1): 3.89
below the threshold | below the threshold | below the threshold | below the threshold | below the threshold | 4.02 | below the threshold | below the threshold | below the threshold | 3.75 | below the threshold | below the threshold | 3.58 | below the threshold | below the threshold | 3.9 | below the threshold | below the threshold | below the threshold | below the threshold | QRPYRRGSEI [KCNJ18, B7U540] | pKd (ARHGEF12, Q9NZN5-2): 3.74; pKd (DLG3_3, Q92796): below the threshold; pKd (NHERF3_3, Q5T2W1): below the threshold; pKd (LNX1_1, Q8TBB1): 3.83
